{"source": "patent US20110076272A1", "about": "“THERAPEUTIC METHODS AND COMPOSITIONS” (priority 2009, published 2011)", "molecules": {"B1": {"name": "AB0023: mouse anti-human LOXL2 monoclonal antibody; heavy chain variable region SEQ ID NO:1, light chain variable region SEQ ID NO:2 (antibody, listed as Mus musculus, V domains shown)", "VH": "MEWSRVFIFLLSVTAGVHSQVQLQQSGAELVRPGTSVKVSCKASGYAFTYYLIEWVKQRPGQGLEWIGVINPGSGGTNYNEKFKGKATLTADKSSSTAYMQLSSLTSDDSAVYFCARNWMNFDYWGQGTTLTVSS", "VL": "MRCLAEFLGLLVLWIPGAIGDIVMTQAAPSVSVTPGESVSISCRSSKSLLHSNGNTYLYWFLQRPGQSPQFLIYRMSNLASGVPDRFSGSGSGTAFTLRISRVEAEDVGVYYCMQHLEYPYTFGGGTKLEIK", "modifications": "Heavy chain; Light chain"}}, "key": {"[1]": {"biological_target": "T1, LOXL2 (Homo sapiens, UniProt Q9Y4K0)", "T1 sequence (Q9Y4K0 26-774)": "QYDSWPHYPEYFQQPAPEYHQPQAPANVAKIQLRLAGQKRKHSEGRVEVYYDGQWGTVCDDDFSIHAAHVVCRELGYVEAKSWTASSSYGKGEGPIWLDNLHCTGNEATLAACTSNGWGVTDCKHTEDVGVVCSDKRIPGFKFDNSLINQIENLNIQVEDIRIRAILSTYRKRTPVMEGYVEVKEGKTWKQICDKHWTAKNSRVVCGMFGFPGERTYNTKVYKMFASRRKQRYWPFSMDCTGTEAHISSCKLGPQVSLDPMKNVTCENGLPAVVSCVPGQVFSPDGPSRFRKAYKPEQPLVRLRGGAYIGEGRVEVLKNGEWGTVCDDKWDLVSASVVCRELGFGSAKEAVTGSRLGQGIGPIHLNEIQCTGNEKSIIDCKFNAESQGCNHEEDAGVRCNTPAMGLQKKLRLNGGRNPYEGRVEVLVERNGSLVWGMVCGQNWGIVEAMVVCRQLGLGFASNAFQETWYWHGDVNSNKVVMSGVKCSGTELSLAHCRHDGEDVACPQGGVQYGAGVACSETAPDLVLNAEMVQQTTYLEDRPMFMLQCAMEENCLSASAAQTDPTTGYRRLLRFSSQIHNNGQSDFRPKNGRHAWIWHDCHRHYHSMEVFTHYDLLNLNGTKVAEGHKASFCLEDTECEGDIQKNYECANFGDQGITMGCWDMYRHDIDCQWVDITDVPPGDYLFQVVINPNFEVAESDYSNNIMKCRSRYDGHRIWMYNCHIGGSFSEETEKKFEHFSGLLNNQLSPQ", "assay": "Western blot analysis and ELISA of AB0023 specificity", "type": "binding", "description": "A mouse anti-human LOXL2 antibody (AB0023) was obtained by immunization with full-length LOXL2 protein and purified by SEC-HPLC (Tosoh TSKGEL G3000SWXL 7.8×300). Analytical size exclusion chromatography was used to assess antibody stability and purity. Purified AB0023 was run on SDS-PAGE Coomassie (Invitrogen BT 4-12% Gels) reducing and non-reducing gels to assess purity. Potency was examined by ELISA to determine Kd, and effect on LOXL2 enzymatic activity was determined using an Amplex Red Assay (Molecular Probes/Invitrogen, Carlsbad, Calif.). Antibody concentration was measured by absorbance at 280 nm using an Extinction Coefficient Abs 0.1% of 1.4. Identity was assayed by isoelectric focusing (Invitrogen pH 3-10 IEF Gels). For safety analysis, endotoxin levels were measured at a sensitivity range of 0.01-1 EU/ml (Charles River EndoSafe PTS)."}, "[2]": {"test_system": "MDA-MB-435 established primary tumors", "assay": "MDA-MB-435 established primary tumor xenograft model", "type": "in vivo, mouse", "conditions": "independent study; AB0023 5 mg/kg twice per week, BAPN 100 mg/kg daily"}, "[3]": {"test_system": "HFF cells", "assay": "Transwell co-culture of HFF cells with LOXL2-secreting tumor cell lines", "type": "cell-based, human", "conditions": "72 hours co-culture"}, "[4]": {"test_system": "Matrigel plug containing bFGF", "assay": "In vivo Matrigel plug angiogenesis assay", "design": "species or system mouse", "conditions": "30 mg/kg i.p. twice weekly", "description": "Athymic female Ncr:Nu/Nu mice were injected subcutaneously in the flank with 0.5 ml high-concentration Matrigel (BD Biosciences, San Jose, Calif.) supplemented with 100 ng/ml FGF and 60 U heparin. Matrigel injections were conducted one week after initiation of treatments with antibodies). Antibodies (or PBST, as a control) were administered by intraperitoneal injection of 30 mg/kg twice weekly. Matrigel plugs were harvested 10 days after implantation by excising the plug together with attached skin, and were fixed in 10% neutral buffered formalin and embedded in paraffin. 5 um sections were cut and stained with hematoxylin and eosin, anti-CD31 or anti-CD34 antibodies to assess degree of vessel formation."}}, "data": [{"molecule": "B1", "values": [{"measurement": "cross-reactivity with other lysyl oxidase-type enzymes", "setting": "[1]", "value": "no cross-reactivity"}, {"measurement": "reduction in collagen production, Sirius red staining", "setting": "[2]", "value": 47, "unit": "%"}, {"measurement": "reduction in fibroblast activation, αSMA positivity", "setting": "[2]", "value": "> 90", "unit": "%"}, {"measurement": "reduction in tumor vasculature, CD31 signal", "setting": "[2]", "value": 52, "unit": "%"}, {"measurement": "reduction in tumor volume after 46 days", "setting": "[2]", "value": 38.4, "unit": "%"}, {"measurement": "reduction in VEGF protein expression", "setting": "[3]", "value": "39-46%"}, {"measurement": "reduction in α-SMA levels", "setting": "[3]", "value": 41, "unit": "%"}, {"measurement": "relative decrease in pSMAD2 phosphorylation", "setting": "[3]", "value": "56-94%"}, {"measurement": "CD31 positive cells in the matrigel plugs", "setting": "[4]; p=0.0168", "value": "significant decrease"}, {"measurement": "reduction in average number of vessels in plugs versus vehicle", "setting": "[4]; plugs at day 10, p=0.0319", "value": "~7", "unit": "fold"}]}]}
